Assay results as given in the Immune Epitope Database (IEDB).

Legend:
HLA-A*02:17 = test: IEDB peptide-MHC binding, purified MHC/competitive/radioactivity; filed as Kd, often an IC50 or EC50 that approximates it; ≥ and ≤ were set here for values at or beyond the usual limits of such assays
HLA-A*02:01 [1] = test: as above
HLA-A*02:03 = test: as above
HLA-A*02:06 = test: as above
HLA-A*02:02 = test: as above; settings: source organism: Vaccinia virus WR
HLA-B*15:03 = test: as above; settings: source organism: Vaccinia virus WR
HLA-B*08:01 = test: as above
HLA-A*11:01 = test: IEDB peptide-MHC binding, purified MHC/competitive/fluorescence; ≥ and ≤ were set here for values at or beyond the usual limits of such assays
HLA-A*03:01 = test: as above
HLA-B*15:01 [2] = test: as above
HLA-A*24:02 = test: as above
HLA-A*02:01 [3] = test: as above
HLA-B*58:01 = test: IEDB peptide-MHC binding, purified MHC/direct/fluorescence; filed as Kd, often an IC50 or EC50 that approximates it; ≥ and ≤ were set here for values at or beyond the usual limits of such assays; settings: source organism: Camelpox virus M-96
HLA-B*57:01 = test: as above; settings: source organism: Camelpox virus M-96
HLA-A*30:01 = test: IEDB peptide-MHC binding, purified MHC/competitive/radioactivity; filed as Kd, often an IC50 or EC50 that approximates it; ≥ and ≤ were set here for values at or beyond the usual limits of such assays; settings: source organism: Vaccinia virus WR
HLA-B*15:01 [4] = test: as above; settings: source organism: Vaccinia virus WR
HLA-A*32:01 = test: as above; settings: source organism: Vaccinia virus WR
[5] = source organism: Dengue virus 4 Philippines/H241/1956
[6] = source organism: Dengue virus 1 Nauru/West Pac/1974
[7] = source organism: Vaccinia virus WR
[8] = source organism: Dengue virus 3 China/80-2/1980
[9] = source organism: Sudan ebolavirus
[10] = source organism: Zaire ebolavirus
[11] = source organism: Vaccinia virus
[12] = source organism: Dengue virus 1 Singapore/S275/1990

## ALLGAMTAGI
HLA-A*02:17; [5]
  Kd: 126 nM
HLA-A*02:01 [1]; [5]
  Kd: 25.3 nM
HLA-A*02:03; [5]
  Kd: 58.8 nM

## AMLDVDLHPA
HLA-A*02:17; [6]
  Kd: 1100 nM
HLA-A*02:06; [6]
  Kd: 7.08 nM
HLA-A*02:01 [1]; [6]
  Kd: 5.66 nM
HLA-A*02:03; [6]
  Kd: 2.03 nM

## CAVNTPVSM
HLA-A*02:02
  Kd: 6.27 µM
HLA-B*15:03
  Kd: 43 nM
HLA-A*02:06; [7]
  Kd: 1520 nM
HLA-A*02:03; [7]
  Kd: 15700 nM

## CLMMMLPATL
HLA-A*02:17; [8]
  Kd: 253 nM
HLA-B*08:01; [8]
  Kd: 60.5 nM
HLA-A*02:03; [8]
  Kd: 6.85 nM

## CMSNSRLSF
HLA-B*15:03
  Kd: 1.03 nM

## FLGEDGCWYG
HLA-A*02:17; [5]
  Kd: 1050 nM
HLA-A*02:01 [1]; [5]
  Kd: 52.4 nM

## GFRSGVPPK
HLA-A*11:01; [9]
  IC50: 3210 nM
HLA-A*03:01; [9]
  IC50: 3790 nM
HLA-B*15:01 [2]; [9]
  IC50: ≥ 92.3 µM

## GLAMGIMML
HLA-A*02:17; [6]
  Kd: 15000 nM
HLA-A*02:01 [1]; [6]
  Kd: 77.6 nM
HLA-A*02:03; source organism: Dengue virus 1 Brazil/97-11/1997
  Kd: 0.67 nM

## GLFPQLSAI
HLA-B*15:01 [2]; [10]
  IC50: 10.3 µM
HLA-A*24:02; [10]
  IC50: 8.03 µM
HLA-A*02:01 [3]; [10]
  IC50: 431 nM

## HLIMFEQYF
HLA-B*15:03
  Kd: 45.5 nM

## ILHSDYQLF
HLA-B*15:03
  Kd: 2.43 nM

## ILTILTIIGL
HLA-A*02:17; [5]
  Kd: 456 nM
HLA-A*02:01 [1]; [5]
  Kd: 18.5 nM

## ISASDMQKF
HLA-B*15:03
  Kd: 812 nM

## KINQIIHDF
HLA-B*15:01 [2]; [9]
  IC50: 27.2 µM
HLA-A*24:02; [9]
  IC50: 0.969 µM
HLA-A*02:01 [3]; [9]
  IC50: ≥ 78600 nM

## KTINALVYF
HLA-B*58:01
  Kd: 45.3 nM
HLA-B*57:01
  Kd: 784 nM
HLA-B*15:03
  Kd: 22.7 nM
HLA-A*30:01
  Kd: 131 nM
HLA-B*15:01 [4]
  Kd: 0.366 nM
HLA-A*32:01
  Kd: 8.73 nM
HLA-B*08:01; [7]
  Kd: 17100 nM

## LAVLFINSI
HLA-B*15:03
  Kd: 191 nM

## LFLDIECHF
HLA-B*15:03
  Kd: 47.3 nM
HLA-A*30:01
  Kd: 19 nM
HLA-B*15:01 [4]
  Kd: 547 nM
HLA-A*32:01
  Kd: 3440 nM
HLA-B*08:01; [7]
  Kd: 1120 nM

## LLFGIKCIK
HLA-A*11:01; [11]
  IC50: 734 nM
HLA-A*03:01; [11]
  IC50: 770 nM
HLA-B*15:01 [2]; [11]
  IC50: ≥ 229 µM
HLA-A*02:01 [3]; [11]
  IC50: 914 nM

## LMTMNIVNF
HLA-B*15:03
  Kd: 16.5 nM
HLA-A*32:01
  Kd: 6530 nM

## LQKLAQHSI
HLA-B*15:03
  Kd: 243 nM

## QQFYWPVMN
HLA-B*15:01 [2]; [10]
  IC50: 34 µM
HLA-A*02:01 [3]; [10]
  IC50: 8000 nM

## SQIITLTAF
HLA-B*15:03
  Kd: 0.791 nM
HLA-A*30:01
  Kd: 16400 nM
HLA-B*15:01 [4]
  Kd: 1.01 nM
HLA-A*32:01
  Kd: 1200 nM
HLA-B*08:01; [7]
  Kd: ≥ 40600 nM

## VLFVVTLIPL
HLA-A*02:17; [5]
  Kd: 3110 nM
HLA-A*02:01 [1]; [5]
  Kd: 57 nM

## VLMLVAHYAI
HLA-A*02:17; [12]
  Kd: 1830 nM
HLA-A*02:01 [1]; [12]
  Kd: 97.4 nM

## WQSVGHMMV
HLA-B*15:01 [2]; [10]
  IC50: 4.76 µM
HLA-A*02:01 [3]; [10]
  IC50: 1540 nM
